From the RNAGym collection of RNA variant scans (doi:10.7554/elife.90254) come the findings set out here.

B1: LINE1-full (parent)
chain: UACGUAGGUGGUUUUCCCCUGAUAGUGCUAAGGGGGCCUGGAAGUUUGGACUGGGCAGAGCUCAACACAGCGUGGCAAAGUGGCUGUGGCUAGACUGCCUCUCUGGAUUCCUCGUCACUCAGCAGGGCAUCUCUGAGAGAAAUGCC

The variants in the series derive from B1. Put plainly: self-cleavage, relative activity (ratio to wild type); higher = more cleavage; in vitro, sequencing; the parent is a self-cleaving ribozyme.
Take A65C A79G: the self-cleavage came out at 0.

As to C66A A141G, the self-cleavage turned out to be 0.04.

Consider A65U A138G, for which the self-cleavage was 0.24.

Consider A64G A117U, for which the self-cleavage came out at 0.26.

Regarding C66G A117G, the self-cleavage stood at 0.08.

For A64G A65G, the self-cleavage stood at 0.11.

In the case of C66U A141G, the self-cleavage stood at 0.03.

For the variant A64G G82A, the self-cleavage was found to be 0.19.

Regarding A67C U87A, the self-cleavage was 0.05.

Regarding A64C U81C, the self-cleavage stood at 0.38.

On to A67G A92U, for which the self-cleavage turned out to be 0.41.

For the variant A67G A92G, the self-cleavage was 0.09.

Consider A67C U119C, for which the self-cleavage turned out to be 0.09.

With A65U U100C, the self-cleavage turned out to be 0.16.

Consider A65G U132C, for which the self-cleavage was found to be 0.07.

Regarding A65G C116U, the self-cleavage stood at 0.05.

As for A64C C103A, the self-cleavage came to 0.29.

As to A64U A138C, the self-cleavage was found to be 0.64.

In the case of A64U A138G, the self-cleavage turned out to be 0.52.

On to A64G U130C, for which the self-cleavage stood at 0.33.

In the case of A64G U130A, the self-cleavage was 0.28.

With A64C U104A, the self-cleavage was found to be 0.28.

For A65G A129C, the self-cleavage turned out to be 0.02.

For the variant A67C U102C, the self-cleavage is 0.04.

In the case of A65G A141C, the self-cleavage came out at 0.38.

As for A64U U73C, the self-cleavage is 0.58.

Regarding A64U U73A, the self-cleavage is 0.21.

Take A65G G89A: the self-cleavage is 0.04.

With A65G G89C, the self-cleavage came to 0.03.

As to A64G U91C, the self-cleavage was found to be 0.07.

On to A65G A140U, for which the self-cleavage came out at 0.07.

In the case of A65G A140G, the self-cleavage amounted to 0.04.

Consider A65G A140C, for which the self-cleavage stood at 0.13.

For the variant A64C A140G, the self-cleavage is 0.24.

Turning to A64G U134C, the self-cleavage was found to be 0.28.

As to A67G C120U, the self-cleavage was 0.45.

A64U U132A: the self-cleavage was 0.07.

Consider A64C A107G, for which the self-cleavage came to 0.36.

Regarding C63U U104C, the self-cleavage was determined as 0.1.

A64G U115C: the self-cleavage was 0.27.

Turning to A65C A124G, the self-cleavage stood at 0.1.

For A64U G72C, the self-cleavage was found to be 0.25.

For the variant A65U G125A, the self-cleavage came out at 0.21.

For the variant A65G G144U, the self-cleavage came out at 0.06.

With C66U U102A, the self-cleavage came to 0.06.

On to A64G A94U, for which the self-cleavage turned out to be 0.08.

Consider A64G A94G, for which the self-cleavage was 0.06.

Regarding A64C A94G, the self-cleavage came out at 0.14.

Regarding A67G G93U, the self-cleavage was 0.11.

In the case of A67G G93A, the self-cleavage is 0.02.

Take A65G U81A: the self-cleavage is 0.06.

Regarding A64G U108A, the self-cleavage was 0.12.

In the case of C66U C111U, the self-cleavage came out at 0.04.

On to A65U U91G, for which the self-cleavage stood at 0.06.

A65U U91C: the self-cleavage was determined as 0.08.

With A64U U91C, the self-cleavage stood at 0.18.

For C66U A140G, the self-cleavage was 0.04.

Take A64U U87G: the self-cleavage is 0.11.

Turning to A64U U87A, the self-cleavage is 0.06.

For the variant A64G A121C, the self-cleavage stood at 0.24.

A64G A121U: the self-cleavage came out at 0.22.

On to A67G G122A, for which the self-cleavage was 0.54.

As for A65G G135A, the self-cleavage is 0.1.

Take A64U A107G: the self-cleavage was found to be 0.45.

For the variant A64G G125A, the self-cleavage was 0.31.

On to A67G A142C, for which the self-cleavage amounted to 0.93.

As to A67G A142G, the self-cleavage is 0.46.

Turning to A64U U81G, the self-cleavage came out at 0.4.

A64G C133U: the self-cleavage turned out to be 0.06.

As to A65G A142C, the self-cleavage came to 0.08.

Consider A65G A136U, for which the self-cleavage amounted to 0.07.

Take A65G G126A: the self-cleavage was 0.02.

Take A67G G89U: the self-cleavage came to 0.02.

Regarding A64G G114U, the self-cleavage was 0.24.

Consider A64U A140G, for which the self-cleavage is 0.39.

Consider A64U U109C, for which the self-cleavage was 0.25.

As to A64U U109G, the self-cleavage came out at 0.23.

Consider A65G A94G, for which the self-cleavage worked out at 0.03.

In the case of A64C U119C, the self-cleavage is 0.35.

For A64U A79U, the self-cleavage was determined as 0.64.

On to A65U U112A, for which the self-cleavage was 0.14.

Regarding A64U C95U, the self-cleavage was 0.07.

Take A65U G82U: the self-cleavage was found to be 0.15.

Turning to A64C A117G, the self-cleavage is 0.42.

Consider A67G A129U, for which the self-cleavage is 0.04.

With A67G A129G, the self-cleavage was determined as 0.45.

Consider A65G U91C, for which the self-cleavage worked out at 0.

A67C A136G: the self-cleavage is 0.12.

Regarding A64G U143A, the self-cleavage stood at 0.24.

With A64C A69G, the self-cleavage is 0.35.

In the case of A64C A78U, the self-cleavage amounted to 0.46.

As for A64C A129U, the self-cleavage came to 0.14.

Turning to A64C A129G, the self-cleavage stood at 0.51.

Regarding A65G A77G, the self-cleavage amounted to 0.04.

For A65U U81C, the self-cleavage worked out at 0.19.

As to A67C U115A, the self-cleavage worked out at 0.04.

With A64G A138G, the self-cleavage came out at 0.21.

C66U U109A: the self-cleavage was found to be 0.03.

As for A65U U119A, the self-cleavage worked out at 0.21.

As for A64G G137A, the self-cleavage turned out to be 0.21.

Take C66U U143C: the self-cleavage is 0.03.

A64U C68A: the self-cleavage stood at 0.01.

As to A65U A124G, the self-cleavage stood at 0.09.

Consider A65U A124U, for which the self-cleavage was 0.18.

For A64U U102C, the self-cleavage was 0.34.

As to A64C A79G, the self-cleavage came out at 0.28.

A65U C76U: the self-cleavage stood at 0.22.

As to A65U U96C, the self-cleavage is 0.02.

In the case of A67C G72U, the self-cleavage amounted to 0.06.

Take A64G U87G: the self-cleavage came to 0.

Consider A64G U87A, for which the self-cleavage is 0.07.

Regarding A67G A117U, the self-cleavage was determined as 0.53.

As to A67G A117G, the self-cleavage was determined as 0.52.

On to A64G A124U, for which the self-cleavage is 0.29.

Regarding A65G U87A, the self-cleavage was determined as 0.06.

Take A65G U87C: the self-cleavage was 0.16.

On to A65C G97A, for which the self-cleavage is 0.04.

Consider A64U A77C, for which the self-cleavage worked out at 0.39.

As for A65G A138G, the self-cleavage amounted to 0.06.

On to A65G U108C, for which the self-cleavage is 0.07.

For A65G U108A, the self-cleavage was 0.04.

On to A65G G114A, for which the self-cleavage was found to be 0.04.

C66U U134C: the self-cleavage was 0.06.

In the case of A64U A65U, the self-cleavage worked out at 0.02.

As for A64C U100C, the self-cleavage amounted to 0.62.

Regarding C66U A138U, the self-cleavage was found to be 0.03.

Turning to C66U U100C, the self-cleavage was 0.07.

Turning to A64U U104C, the self-cleavage is 0.62.

As for A64U C111A, the self-cleavage is 0.35.

As to A64G A142G, the self-cleavage was determined as 0.25.

Consider A65U A141G, for which the self-cleavage came out at 0.18.

In the case of C66U A142G, the self-cleavage was 0.05.

With A67G A94G, the self-cleavage was 0.09.

With A65C U143C, the self-cleavage worked out at 0.06.

For the variant A67C A117C, the self-cleavage came to 0.03.

On to A64G C131U, for which the self-cleavage was found to be 0.33.

Turning to A64C U143A, the self-cleavage is 0.25.

As for A65G U112C, the self-cleavage turned out to be 0.1.

Turning to A64U G74A, the self-cleavage was 0.3.

On to A65U U104C, for which the self-cleavage came to 0.52.

Take A67C G82A: the self-cleavage was determined as 0.05.

For A64U C133U, the self-cleavage came out at 0.49.

Turning to A64U C123U, the self-cleavage turned out to be 0.41.

For A67G A121G, the self-cleavage was 0.53.

Turning to A67G A121U, the self-cleavage worked out at 0.51.

Turning to C66U A136G, the self-cleavage was 0.04.

With A67G A141G, the self-cleavage amounted to 0.38.

In the case of A64G G74A, the self-cleavage was determined as 0.12.

With A64C U85C, the self-cleavage worked out at 0.02.

For A65G C84G, the self-cleavage was 0.17.

As for A65G C84U, the self-cleavage was 0.06.

On to A67G, for which the self-cleavage is 0.5.

On to A67C, for which the self-cleavage is 0.06.

In the case of A64G C84U, the self-cleavage amounted to 0.1.

As for A64G C84A, the self-cleavage amounted to 0.05.

A67C C110A: the self-cleavage came out at 0.05.

A67G A77U: the self-cleavage was determined as 0.3.

Turning to A64U A141C, the self-cleavage was found to be 0.46.

Regarding A64U U85A, the self-cleavage was found to be 0.06.

For A67G C133A, the self-cleavage is 0.41.

For the variant A64G A78G, the self-cleavage is 0.25.

For the variant A67G C84G, the self-cleavage turned out to be 0.04.

Consider A67G C84U, for which the self-cleavage was 0.04.

Regarding A64G A140U, the self-cleavage turned out to be 0.3.

Regarding A67C A138U, the self-cleavage is 0.03.

Turning to C63U U130C, the self-cleavage is 0.39.

Turning to A65U G139A, the self-cleavage stood at 0.15.
